One series has as its target T1, ctPrp43 (Thermochaetoides thermophila, UniProt G0RY84).
T1 construct: gene CTHT_0005780; truncated, residues 61-764; GST fusion, tag cleaved by TEV; E. coli Rosetta 2 (DE3); no G-patch protein
The experiment in a line: NADH-coupled ATPase assay (pyruvate kinase / lactate dehydrogenase), […] nm. It is filed as biochemical. Conditions: no RNA; no G-patch protein; 25 mM Bis-Tris propane pH 7.5, 150 mM KCl, 3 mM MgCl2, 25 °C; 5 uM enzyme; ATP 0-2 mM.

Substrate in the series “purified protein”: Nc1ncnc2c1ncn2[C@@H]1O[C@H](COP(=O)(O)OP(=O)(O)OP(=O)(O)O)[C@@H](O)[C@H]1O
Description: purified protein. As to conditions: no RNA, 25 mM Bis-Tris propane pH 7.5, 150 mM KCl, 3 mM MgCl2, 25 °C, 0.4 uM enzyme, ATP 0-2 mM. It is filed as biochemical, Thermochaetoides thermophila.

T1 sequence (G0RY84 entry or part of it): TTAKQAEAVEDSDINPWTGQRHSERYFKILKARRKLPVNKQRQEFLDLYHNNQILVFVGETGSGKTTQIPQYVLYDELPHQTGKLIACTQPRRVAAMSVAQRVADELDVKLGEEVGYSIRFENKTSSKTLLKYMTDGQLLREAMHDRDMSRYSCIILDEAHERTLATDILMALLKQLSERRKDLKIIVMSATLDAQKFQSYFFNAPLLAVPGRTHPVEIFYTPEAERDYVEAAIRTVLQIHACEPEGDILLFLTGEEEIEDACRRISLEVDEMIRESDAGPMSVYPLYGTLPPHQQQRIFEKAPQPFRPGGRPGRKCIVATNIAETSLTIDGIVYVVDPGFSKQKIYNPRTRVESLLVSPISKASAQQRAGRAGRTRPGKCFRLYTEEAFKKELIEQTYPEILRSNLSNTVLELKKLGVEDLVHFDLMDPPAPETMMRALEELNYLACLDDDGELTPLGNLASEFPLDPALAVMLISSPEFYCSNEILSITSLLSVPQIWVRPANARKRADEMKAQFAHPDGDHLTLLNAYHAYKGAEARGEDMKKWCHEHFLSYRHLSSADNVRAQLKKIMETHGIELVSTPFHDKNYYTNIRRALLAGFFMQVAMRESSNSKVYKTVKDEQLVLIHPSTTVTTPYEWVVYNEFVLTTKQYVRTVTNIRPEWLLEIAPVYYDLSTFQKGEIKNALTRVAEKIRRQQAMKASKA

For orientation: Km means the substrate concentration at which the rate is half of its maximum. As for `Nc1ncnc2c1ncn2[C@@H]1O[C@H](COP(=O)(O)OP(=O)(O)OP(=O)(O)O)[C@@H](O)[C@H]1O` [ATP], the Km on ctPrp43 is 21.1 ± 3.88 µM.

B1: ctPrp22 (Thermochaetoides thermophila DSM 1495) (protein)
chain: TNMSIKEQRESLPVFQFRDQIIQAVKDNQILIVVGETGSGKTTQVTQYLAEAGFTKYGMIGCTQPRRVAAVSVAKRVAEEVGCQLGQEVGYTIRFEDVTSPATKIKYMTDGMLQREILMDPDLKRYSVIMLDEAHERTIATDVLFALLKKTVKRRPDLKVIVTSATLDAEKFSEYFNSCPIFTIPGRTFPVEILYSREPEPDYLEAALTTVMQIHLTEPPGDILVFLTGQEEIDTACEILYERMKALGPSVPELIILPIYSALPSEMQSRIFEPAPPGSRKVVIATNIAETSITIDYIYYVVDPGFVKQNAYDPKLGMDSLVVTPISQAQANQRAGRAGRTGPGKCFRLYTEAAYQSEMLPTTIPDIQRQNLANTILLLKAMGINDLLRFDFMDPPPVNTMLTALEELYALGALDDEGLLTRLGRKMADFPMEPSLSKVLIASVDKGCSDEMVTIVSMLNLQQIFYRPKDKQQQADQKKAKFHDPTGDHLTLLNVYNAWKNSGYSNAWCFENYIQARAMRRARDVRQQIVKIMERHRHPIISCGRDTDKIRQALCAGFFRNTARKDPQEGYKTLTEGTPVYLHPSSALFGKQAEWVLYHELVLTTKEYMHFTTAIEPKWLVEAAPTFFKLAPTDRLSKRKKAERIQPLYNKYEGEDGWRLSAQRRAARPGGGGGTWG
notes: N-terminally truncated, lacks first 545 residues (S1 motif omitted); GST fusion from pGEX-6p1, tag cleaved by TEV; E. coli Rosetta 2 (DE3)
By kcat is commonly meant the maximal rate divided by the concentration of active sites. On to B1, for which, in “purified protein”, the Km turned out to be 34.53 ± 1.74 µM and the kcat was 0.559 ± 0.00483 s⁻¹.

B2: ctPrp22 (Thermochaetoides thermophila DSM 1495; S837G) (protein)
chain: TNMSIKEQRESLPVFQFRDQIIQAVKDNQILIVVGETGSGKTTQVTQYLAEAGFTKYGMIGCTQPRRVAAVSVAKRVAEEVGCQLGQEVGYTIRFEDVTSPATKIKYMTDGMLQREILMDPDLKRYSVIMLDEAHERTIATDVLFALLKKTVKRRPDLKVIVTSATLDAEKFSEYFNSCPIFTIPGRTFPVEILYSREPEPDYLEAALTTVMQIHLTEPPGDILVFLTGQEEIDTACEILYERMKALGPSVPELIILPIYSALPSEMQSRIFEPAPPGSRKVVIATNIAETGITIDYIYYVVDPGFVKQNAYDPKLGMDSLVVTPISQAQANQRAGRAGRTGPGKCFRLYTEAAYQSEMLPTTIPDIQRQNLANTILLLKAMGINDLLRFDFMDPPPVNTMLTALEELYALGALDDEGLLTRLGRKMADFPMEPSLSKVLIASVDKGCSDEMVTIVSMLNLQQIFYRPKDKQQQADQKKAKFHDPTGDHLTLLNVYNAWKNSGYSNAWCFENYIQARAMRRARDVRQQIVKIMERHRHPIISCGRDTDKIRQALCAGFFRNTARKDPQEGYKTLTEGTPVYLHPSSALFGKQAEWVLYHELVLTTKEYMHFTTAIEPKWLVEAAPTFFKLAPTDRLSKRKKAERIQPLYNKYEGEDGWRLSAQRRAARPGGGGGTWG
notes: as for B1
Regarding B2, in “purified protein”, the Km stood at 24.79 ± 0.93 µM and the kcat was 0.9228 ± 0.00583 s⁻¹.

B3: ctPrp22 (Thermochaetoides thermophila DSM 1495; S837A) (protein)
chain: TNMSIKEQRESLPVFQFRDQIIQAVKDNQILIVVGETGSGKTTQVTQYLAEAGFTKYGMIGCTQPRRVAAVSVAKRVAEEVGCQLGQEVGYTIRFEDVTSPATKIKYMTDGMLQREILMDPDLKRYSVIMLDEAHERTIATDVLFALLKKTVKRRPDLKVIVTSATLDAEKFSEYFNSCPIFTIPGRTFPVEILYSREPEPDYLEAALTTVMQIHLTEPPGDILVFLTGQEEIDTACEILYERMKALGPSVPELIILPIYSALPSEMQSRIFEPAPPGSRKVVIATNIAETAITIDYIYYVVDPGFVKQNAYDPKLGMDSLVVTPISQAQANQRAGRAGRTGPGKCFRLYTEAAYQSEMLPTTIPDIQRQNLANTILLLKAMGINDLLRFDFMDPPPVNTMLTALEELYALGALDDEGLLTRLGRKMADFPMEPSLSKVLIASVDKGCSDEMVTIVSMLNLQQIFYRPKDKQQQADQKKAKFHDPTGDHLTLLNVYNAWKNSGYSNAWCFENYIQARAMRRARDVRQQIVKIMERHRHPIISCGRDTDKIRQALCAGFFRNTARKDPQEGYKTLTEGTPVYLHPSSALFGKQAEWVLYHELVLTTKEYMHFTTAIEPKWLVEAAPTFFKLAPTDRLSKRKKAERIQPLYNKYEGEDGWRLSAQRRAARPGGGGGTWG
notes: as for B1
For B3, in “purified protein”, the Km is 33.15 ± 2.24 µM and the catalytic constant (kcat) is 0.8948 ± 0.0107 s⁻¹.
